The experiment deals with CASK_CAMK domain (residues 1-345) (Mus musculus) (UniProt O70589). The experiment in a line: ITC. For orientation: Isothermal titration calorimetry measures the heat released or taken up as one component is titrated into another.

Substance Caskin1 CID L378T (domain or fragment) had a fold decrease of the interaction against wild-type Caskin1 of 9 fold. Take “Caskin1 CID L378T/R379H (domain or fragment)”: the fold decrease of the binding against wild-type Caskin1 was 40 fold. “LiprinA2 CID G977E and H983R (domain or fragment)” showed a fold increase in the binding affinity against wild-type LiprinA2 of 9 fold. Usually Kd stands for the concentration at which binding is half-saturated. As usually defined, the stoichiometry N is the number of molecules, sites or subunits per partner or assembly. Substance reported Caskin1 peptide showed a dissociation constant (Kd) of 6.94 µM and a stoichiometry N of 1.

Source of the values: paper doi:10.1101/2022.01.16.476467.
